Measured values from patent US11291722B2, “Vaccine composition comprising cyclic peptides, antibodies to the cyclic peptides or an anticancer composition comprising the same” (Industry Academic Cooperation Foundation, Hallym University, priority 2016, dated 2022).
One block for each molecule: values may come before it.

What was measured:
TM4SF5 = target: T1, TM4SF5 (Homo sapiens, UniProt O14894); settings: in vitro and in vivo; cited from earlier work
T1 sequence (O14894 1-197): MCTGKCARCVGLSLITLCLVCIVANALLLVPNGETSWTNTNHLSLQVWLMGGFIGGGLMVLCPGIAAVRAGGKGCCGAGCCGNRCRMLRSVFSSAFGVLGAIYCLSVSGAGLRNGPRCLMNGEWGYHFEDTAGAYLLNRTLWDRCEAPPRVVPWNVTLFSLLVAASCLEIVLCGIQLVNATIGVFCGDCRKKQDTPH

HT-29 cells = type: in vivo, BALB/cAnNCri-nu/nu mice; settings: 25 mg/kg tail vein twice a week; compared to PBS control
Method: Mouse tumor models were established by implanting HT-29 cells into BALB/cAnNCri-nu/nu mice. PBS or anti-TM4SF5 monoclonal antibody was injected into the mice when the tumor size reaches 5 mm in diameter and the tumor growth was monitored for 31 days (n=6 each). (A) Experimental schedule. (B) Macroscopic appearance of colon cancer tissue. (C) Tumor volume (width^2×length/2). (D) Tumor weight. (E) Weight.
Twelve BALB/cAnNCri-nu/nu mice were subcutaneously injected with 5×10^6 HT-29 cells containing 50% matrigel (BD biosciences) on the dorsal right flank. When the tumor diameter reached 5 mm, the mice were randomly sorted into two treatment groups (6 mice/each group) of PBS and anti-TM4SF5 monoclonal antibody (mEC2-C). Antibodies (25 mg/kg) were injected into the tail vein twice a week. During 30 days after injecting the cancer cell, the tumor diameter was measured per 3 or 4 day-interval, and the tumor volume was calculated according to an equation Width^2×length/2. When the tumor size is reached ±600 mm^3, BACB/cAnNCri-NCri-nu/nu mice were sacrificed, and the tumor weight was measured.

[1] = target: T2, hTM4SF5EC2-C cyclic peptide (Homo sapiens, UniProt O14894, G133C); test: SPR (surface plasmon resonance) analysis; type: binding; settings: 25° C.
T2 construct: purchased Peptron, Co., Ltd; host or cells: chemical synthesis
T2 sequence (O14894 with tags, fused parts or gaps G133C): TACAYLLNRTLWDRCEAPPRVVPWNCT
Method: FIG. 6 represents purification and characterization of mouse anti-TM4SF5 monoclonal antibodies recognizing TM4SF5 cyclic peptides. (A) Hydrops abdominis was producted from BALB/c mice by injecting i.p. into the abdominal cavity with hybridoma clone (2A10 clone) derived from FIG. 5. Anti-TM4SF5 monoclonal antibody was purified using protein-A agarose column chromatography and the purified antibody was identified by SDS-PAGE and Coomassie blue staining. (B) The isotype was determined by obtaining titration curves using purified monoclonal antibodies. (C) A binding affinity of monoclonal antibody for cyclic peptide hTM4SF5EC2-C was determined by using ELISA. (D) A binding affinity of monoclonal antibody for cyclic peptide […] was determined by using Reichert Analytical Instruments SPR 7500DC (Reichert). […] (E) HEK 293F-EV (empty vector) and proteins from HEK 293F-TM4SF5 cells were separated by SDS-PAGE and analyzed by Western Blot using anti-TM4SF5 monoclonal antibody (mEC2-C), anti-Myc antibody or anti-β-actin antibody. HEK 293F-EV and proteins of HEK 293F-TM4SF5 cell were immunoprecipitated with mEC2-C and analyzed by Western blot using anti-Myc antibody. […]
The affinities of anti-hTM4SF5 monoclonal antibody (mEC2-C) and humanized anti-TM4SF5 antibody (hEC2-C-2) binding to hTM4SF5EC2-C cyclic peptide were measured at 25° C. using the Reichert SPR system. […]

[2] = target: T3, hTM4SF5EC2-C cyclic peptide (Homo sapiens, UniProt O14894, G133C/V156C); test: ELISA binding of monoclonal antibody to cyclic peptide
T3 construct: purchased Peptron, Co., Ltd; host or cells: chemical synthesis
T3 sequence (O14894 131-157 G133C/V156C): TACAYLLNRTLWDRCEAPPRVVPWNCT
Method: Mice were sacrificed before and 10 days after each administration to obtain serum. To determine the total IgG titer and amount, a 96-well immunoplate (Nalgen Nunc International) was coated with 5 μg/ml hTM4SF5EC2-C cyclic peptide and blocked with 0.05% PBST containing 1% BSA for two hours. After removal of blocking solution, 100 μl of the culture supernatant was added and incubated for 2 hours at room temperature, then washed with PBST and incubated for 2 hours with the detection antibody such as horseradish peroxidase (HRP)-bound an anti-IgG antibody. Colorimetric assays were developed with TMB substrate solutions and absorbance was measured at 450 nm using a Spectra Max 250 microplate reader.

[3] = target: T4, Myc-tagged recombinant TM4SF5 protein (Homo sapiens, UniProt O14894); test: Western blot and immunoprecipitation on TM4SF5-overexpressing HEK 293F cells; type: binding; settings: HEK 293F cells overexpressing TM4SF5 vs HEK 293F control
T4 construct: expressed in transfected cells
T4 sequence (O14894 1-197): T1 sequence (O14894 1-197)
Method: Human TM4SF5 cDNA was amplified by RT-PCR from Huh-7 mRNA using the following primer set: hTM4SF5 5′ primer, 5′-[…]-3′ (SEQ ID NO: 24), hTM4SF5 3′ primer, 5′-[…]-3′ (SEQ ID NO: 25). The cDNA fragment was cloned into the expression vector pcDNA-3.1/Myc-His(−)B (Invitrogen). HEK 293F cells (1×10^6 cells/ml) were transfected with 2.5 μg/ml hTM4SF5/pcDNA and 7.5 μg/ml polyethylenimine (PEI, Polysciences) for the production of stable cell lines expressing hTM4SF5, and the transfected cells were collected using 500 μg/ml G418 (Calbiochem) for 14 days. Expression of Myc-tagged hTM4SF5 was confirmed by Western blot analysis using anti-Myc-tag antibodies.
In order to analyze the specificity of anti-TM4SF5 monoclonal antibody and humanized anti-TM4SF5 antibody, TM4SF5-overexpressed cell lysates were separated on SDS-PAGE, and Western blot and immunoprecipitation assays were performed as described on Kwon S, Kim D, Rhee J W, Park J A, Kim D W, Kim D S, Lee Y, Kwon H J. BMC Biol. 2010; 8:23. In order to identify the expression of E-cadherin and β-catenin in humanized anti-TM4SF5 antibody-treated cells, cell lysates were analyzed with SDS-PAGE and Western blotting method as descried in Kwon S, Choi K C, Kim Y E, Ha Y W, Kim D, Park B K, Wu G, Kim D S, Lee Y, Kwon H J. Cancer Res. 2014; 74(14):3844-3856.

Molecule: Cc1ccc(S(=O)(=O)Nc2ccc(C(=O)/C=C/c3ccc(O)cc3)cc2)cc1 [TSAHC, 4′-(p-toluenesulfonyl-amido)-4-hydroxychalcone]
HCC growth and metastasis (TM4SF5): inhibited HCC growth and metastasis in vitro and in vivo

off rate (kd) [1]: 10^−5 /sec | binding to cyclic peptide hTM4SF5EC2-C by ELISA [2]: specific binding
B1: mEC2-C: mouse IgG3 anti-TM4SF5 monoclonal antibody from hybridoma clone 2A10, recognizing hTM4SF5EC2-C cyclic peptide (antibody, V domains shown)
VH: QVQLEESGPGLVAPSQSLSIICTVSGFSLTSYGVTWVRQPPGKGLEWLGVIWSDGSTNYQSALISRLTISRDNSKSQAFLKLNSLQTDDTATYYCARPSNYYYFDYWGQGTTLTVSS
VL: DIVMTQSPSSLAVSAGERVTLSCKSSQSLFDRRTRKTYLAWYQQKPGQSPKLLISWASTRESGVPDRFTGSGSGTDFTLTISSVQAEDLAVYYCKQSYNLFTFGGGTKLEIK
progression of colon cancer (tumor volume and weight) (HT-29 cells): attenuated progression of colon cancer | recognition of TM4SF5 protein by Western blot and immunoprecipitation [3]: recognize Myc-tagged recombinant TM4SF5 protein
